± gives the uncertainty stated by the source.
Assay: self-splicing fitness, log relative to wild type (ln ratio); higher = more splicing; Tetrahymena group I intron in knt gene, E. coli kanamycin selection, DiMSum; sequences stand for … in CUCUCU…GGAGGGAAAAGUUAUCAGGCAUGCACCUGGUAGCUAGUCUUUAAACCAAUAGAUUGCAUCGGUUUAAAAGGCAAGACCGUCAAAUUGCGGGAAAGGGGUCAACAGCCGUUCAGUACCAAGUCUCAGGGGAAACUUUGAGAUGGCCUUGCAAAGGGUAUGGUAAUAAGCUGACGGACAUGGUCCUAACCACGCAGCCAAGUCCUAAGUCAACAGAUCUUCUGUUGAUAUGGAUGCAGUUCACAGACUAAAUGUCGGUCGGGGAAGAUGUAUUCUUCUCAUAAGAUAUAGUCGGACCUCUCCUUAAUGGGAGCUAGCGGAUGAAGUGAUGCAACACUGGAGCCGCUGGGAACUAAUUUGUAUGCGAAAGUAUAUUGAUUAGUUUUGGAGUACUCGUGGUCG
How it was run: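 DiMSum derived fitness as the error-weighted combination of fold changes across replicates, kanamycin versus no kanamycin, normalised to wild type. E. coli BL21(DE3) held the library, which randomised all eight P1ex-region intron nucleotides within the knt kanamycin-resistance gene on pET-22b(+). Six replicate transformations grew overnight at 37°C or 30°C on LB agar with or without 25 μg/mL kanamycin, also containing 100 μg/mL carbenicillin, 50 μM IPTG and 0.2% rhamnose, and pooled colonies were amplicon-sequenced on an Illumina HiSeq 2500.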

| Sequence | self-splicing fitness (ln) (30 °C) | self-splicing fitness (ln) (37 °C) |
| --- | --- | --- |
| GAAUAGCAAUAUUACGGGCA | -1.19 ± 0.083 | -1.2 ± 0.085 |
| GAAUAGCAAUAUUACGGGUC | -1.89 ± 0.21 | -2.68 ± 0.33 |
| GAAUAGCAAUAUUACGGUGC | -2.18 ± 0.22 | -2.78 ± 0.27 |
| GAAUAGCAAUAUUACGUAAA | -1.94 ± 0.13 | -2.03 ± 0.14 |
| GAAUAGCAAUAUUACGUAGG | -3.4 ± 0.15 | -2.68 ± 0.2 |
| GAAUAGCAAUAUUACGUAUG | -1.56 ± 0.12 | -1.04 ± 0.18 |
| GAAUAGCAAUAUUACGUCUA | -1.12 ± 0.12 | -0.42 ± 0.13 |
| GAAUAGCAAUAUUACGUGAC | -3.51 ± 0.28 | -1.43 ± 0.2 |
| GAAUAGCAAUAUUACGUGGC | -3.67 ± 0.27 | -1.34 ± 0.17 |
| GAAUAGCAAUAUUACGUUAC | -1.97 ± 0.13 | -1.6 ± 0.21 |
| GACAAGCAAUAUUACGAACC | -1.06 ± 0.14 | -0.514 ± 0.17 |
| GACAAGCAAUAUUACGAAUC | -2.49 ± 0.12 | -2.53 ± 0.16 |
| GACAAGCAAUAUUACGACCA | -0.459 ± 0.12 | -0.806 ± 0.13 |
| GACAAGCAAUAUUACGACGA | -0.615 ± 0.067 | 0.296 ± 0.095 |
| GACAAGCAAUAUUACGACGC | 0.305 ± 0.1 | 0.643 ± 0.13 |
| GACAAGCAAUAUUACGACGG | -3.3 ± 0.2 | -2.64 ± 0.17 |
| GACAAGCAAUAUUACGACUG | -0.381 ± 0.056 | -0.0494 ± 0.092 |
| GACAAGCAAUAUUACGAGGC | -2.4 ± 0.16 | -2.76 ± 0.32 |
| GACAAGCAAUAUUACGAUAG | -2.76 ± 0.22 | -0.828 ± 0.12 |
| GACAAGCAAUAUUACGCCGA | -1.19 ± 0.12 | -0.179 ± 0.14 |
| GACAAGCAAUAUUACGCCGG | -2.63 ± 0.32 | -1.92 ± 0.28 |
| GACAAGCAAUAUUACGCUUG | -4.51 ± 0.29 | -2.76 ± 0.27 |
| GACAAGCAAUAUUACGGCAA | -0.787 ± 0.075 | -0.384 ± 0.074 |
| GACAAGCAAUAUUACGGCCU | -0.429 ± 0.082 | -0.314 ± 0.1 |

| Sequence | self-splicing fitness (ln) (30 °C) | self-splicing fitness (ln) (37 °C) |
| --- | --- | --- |
| GACAAGCAAUAUUACGGGAG | -3.18 ± 0.11 | -1.52 ± 0.1 |
| GACAAGCAAUAUUACGGUGU | -3.98 ± 0.13 | -1.9 ± 0.11 |
| GACAAGCAAUAUUACGUAGC | -1.48 ± 0.069 | -0.611 ± 0.076 |
| GACAAGCAAUAUUACGUAUU | -2.83 ± 0.1 | -1.66 ± 0.11 |
| GACAAGCAAUAUUACGUCCU | -1.99 ± 0.27 | -0.755 ± 0.19 |
| GACAAGCAAUAUUACGUCUC | -4.15 ± 0.27 | -1.18 ± 0.19 |
| GACAAGCAAUAUUACGUGGA | -3.18 ± 0.16 | -1.42 ± 0.1 |
| GACAAGCAAUAUUACGUUGU | -3.54 ± 0.12 | -2.81 ± 0.14 |
| GACCAGCAAUAUUACGAAAU | -1.34 ± 0.093 | -0.476 ± 0.098 |
| GACCAGCAAUAUUACGACUC | -0.264 ± 0.06 | 0.162 ± 0.077 |
| GACCAGCAAUAUUACGAGAG | -3.61 ± 0.2 | -1.51 ± 0.13 |
| GACCAGCAAUAUUACGAGCU | -2.91 ± 0.14 | -1.41 ± 0.15 |
| GACCAGCAAUAUUACGAUAU | -0.781 ± 0.072 | -0.235 ± 0.086 |
| GACCAGCAAUAUUACGCAGU | -1.56 ± 0.067 | -0.904 ± 0.09 |
| GACCAGCAAUAUUACGCCAA | -2.99 ± 0.22 | -1.45 ± 0.15 |
| GACCAGCAAUAUUACGCCCC | -1.35 ± 0.17 | -0.908 ± 0.17 |
| GACCAGCAAUAUUACGCCGG | -2.59 ± 0.16 | -2.58 ± 0.29 |
| GACCAGCAAUAUUACGCCUU | -0.277 ± 0.07 | 0.293 ± 0.087 |
| GACCAGCAAUAUUACGCGAG | -1.37 ± 0.16 | -0.897 ± 0.13 |
| GACCAGCAAUAUUACGCGAU | -2.28 ± 0.11 | -1.17 ± 0.093 |
| GACCAGCAAUAUUACGCUGC | -3.73 ± 0.22 | -1.32 ± 0.15 |
| GACCAGCAAUAUUACGGAAC | -0.88 ± 0.098 | -0.504 ± 0.11 |
| GACCAGCAAUAUUACGGCGC | -0.331 ± 0.09 | 0.162 ± 0.1 |
